Experimental data: US12416018B2, “Regulation of gene expression by aptamer-mediated modulation of alternative splicing” (MEIRAGTX GENE REGULATION LIMITED, priority 2015, dated 2025)
Residue numbers refer to the chain shown, from its start. Entries after “also recorded” stand apart in the source; their conditions may differ. Where two headings read alike, the source gives them in different places.

B1: Con 1: luciferase gene with truncated human beta-globin intron 2 (IVS2Δ), original IVS2 splice sites; SEQ ID NO: 1 (nucleic acid)
DNA: GAGGTTCCATCTGCCAGGTATCAGGGTGAGTCTATGGGACCCTTGATGTTTTCTTTCCCCTTCTTTTCTATGGTTAAGTTCATGTCATAGGAAGGGGAGAAGTAACAGGGTACACATATTGACCAAATCAGGGTAATTTTGCATTTGTAATTTTAAAAAATGCTTTCTTCTTTTAATATACTTTTTTGTTTATCTTATTTCTAATACTTTCCCTAATCTCTTTCTTTCAGGGCAATAATGATACAATGTATCATGCCTCTTTGCACCATTCTAAAGAATAACAGTGATAATTTCTGGGTTAAGGCAATAGCAATATTTCTGCATATAAATATTTCTGCATATAAATTGTAACTGATGTAAGAGGTTTCATATTGCTAATAGCAGCTACAATCCAGCTACCATTCTGCTTTTATTTTATGGTTGGGATAAGGCTGGATTATTCTGAGTCCAAGCTAGGCCCTTTTGCTAATCATGTTCATACCTCTTATCTTCCTCCCACAGCAAGGATATGGGCTCACTGAGACTACATCAGCTATTCT
modifications: Luci-IVS-Luci in construct Con1 Human beta- globin intron 2 containing a deletion (IVS2) is in lowercase and flanking luciferase sequence is in uppercase.
B2: Con 2: luciferase with IVS2Δ, altered 5′ss; SEQ ID NO: 2 (nucleic acid)
DNA: GATTACACCCGAGGGGGATGATAAAGTAAGCCTATGGGACCCTTGATGTTTTCTTTCCCCTTCTTTTCTATGGTTAAGTTCATGTCATAGGAAGGGGAGAAGTAACAGGGTACACATATTGACCAAATCAGGGTAATTTTGCATTTGTAATTTTAAAAAATGCTTTCTTCTTTTAATATACTTTTTTGTTTATCTTATTTCTAATACTTTCCCTAATCTCTTTCTTTCAGGGCAATAATGATACAATGTATCATGCCTCTTTGCACCATTCTAAAGAATAACAGTGATAATTTCTGGGTTAAGGCAATAGCAATATTTCTGCATATAAATATTTCTGCATATAAATTGTAACTGATGTAAGAGGTTTCATATTGCTAATAGCAGCTACAATCCAGCTACCATTCTGCTTTTATTTTATGGTTGGGATAAGGCTGGATTATTCTGAGTCCAAGCTAGGCCCTTTTGCTAATCATGTTCATACCTCTTATCTTCCTCCCACAGCCGGGCGCGGTCGGTAAAGT
modifications: Luci-IVS-Luci in construct Con2
B3: Con 3: luciferase with IVS2Δ, altered 5′ss; SEQ ID NO: 3 (nucleic acid)
DNA: TTCTTCGCCAAAAGCAGTAAGTCTATGGGACCCTTGATGTTTTCTTTCCCCTTCTTTTCTATGGTTAAGTTCATGTCATAGGAAGGGGAGAAGTAACAGGGTACACATATTGACCAAATCAGGGTAATTTTGCATTTGTAATTTTAAAAAATGCTTTCTTCTTTTAATATACTTTTTTGTTTATCTTATTTCTAATACTTTCCCTAATCTCTTTCTTTCAGGGCAATAATGATACAATGTATCATGCCTCTTTGCACCATTCTAAAGAATAACAGTGATAATTTCTGGGTTAAGGCAATAGCAATATTTCTGCATATAAATATTTCTGCATATAAATTGTAACTGATGTAAGAGGTTTCATATTGCTAATAGCAGCTACAATCCAGCTACCATTCTGCTTTTATTTTATGGTTGGGATAAGGCTGGATTATTCTGAGTCCAAGCTAGGCCCTTTTGCTAATCATGTTCATACCTCTTATCTTCCTCCCACAGCTCTGATTGACAAATACG
modifications: Luci-IVS-Luci in construct Con3
B4: Con 4: luciferase with IVS2Δ, weak 5′ss; SEQ ID NO: 4 (nucleic acid)
DNA: AAGAGCTGTTTCTGAGGAGGTGTGGCTATGGGACCCTTGATGTTTTCTTTCCCCTTCTTTTCTATGGTTAAGTTCATGTCATAGGAAGGGGAGAAGTAACAGGGTACACATATTGACCAAATCAGGGTAATTTTGCATTTGTAATTTTAAAAAATGCTTTCTTCTTTTAATATACTTTTTTGTTTATCTTATTTCTAATACTTTCCCTAATCTCTTTCTTTCAGGGCAATAATGATACAATGTATCATGCCTCTTTGCACCATTCTAAAGAATAACAGTGATAATTTCTGGGTTAAGGCAATAGCAATATTTCTGCATATAAATATTTCTGCATATAAATTGTAACTGATGTAAGAGGTTTCATATTGCTAATAGCAGCTACAATCCAGCTACCATTCTGCTTTTATTTTATGGTTGGGATAAGGCTGGATTATTCTGAGTCCAAGCTAGGCCCTTTTGCTAATCATGTTCATACCTCTTATCTTCCTCCCACAGCCTTCAGGATTACAAGATTCAA
modifications: Luci-IVS-Luci in construct Con4
B5: DHFR_wt: Con 1 with wild type human DHFR exon 2, native 5′ss; SEQ ID NO: 47 (nucleic acid)
DNA: GAGTAACGCTGTTTCTCTAACTTGTAGGAATGAATTCAGATATTTCCAGAGAATGACCACAACCTCTTCAGTAGAAGGTAATGTG
modifications: expressed or natural sequence
B6: DHFR_wt5ssC: DHFR exon 2 with native 5′ss four nucleotides mutated to C; SEQ ID NO: 48 (nucleic acid)
DNA: B5 DNA with G78C, T79C, A80C, A81C
modifications: expressed or natural sequence
B7: DHFR_Con15ss: DHFR exon 2 with 5′ss from Con 1; SEQ ID NO: 49 (nucleic acid)
DNA: B5 DNA with A76G, A80G, T82G, G83T
modifications: expressed or natural sequence
B8: DHFR_Con45ss: DHFR exon 2 with weak 5′ss from Con 4; SEQ ID NO: 50 (nucleic acid)
DNA: B5 DNA with A75G, A80G, A81T, T82G
modifications: expressed or natural sequence
B9: DHFR_wtmtSRp40: DHFR exon 2 with mutated SRp40 binding site; SEQ ID NO: 51 / 58 (nucleic acid)
DNA 1: B5 DNA with C57A, C58A, C60A, C63A, C64A
DNA 2: GAGTAACGCTGTTTCTCTAACTTGTAGGAATGAATTCAGATATTTCCAGAGAATGAAAAAAAAATCTTCAGTAGAAGGTAATGT
modifications: expressed or natural sequence
B10: DHFR_wtStrSC35: DHFR exon 2 with stronger SC35 binding site; SEQ ID NO: 52 (nucleic acid)
DNA: B5 DNA with A33G, A34C, T35C, T36C, A38T
modifications: expressed or natural sequence
B11: DHFR_wtSC35hnRNPA1: DHFR exon 2, SC35 site replaced by hnRNP A1 binding site; SEQ ID NO: 53 (nucleic acid)
DNA: B5 DNA with A33T, T35G, T36G, C37G
modifications: expressed or natural sequence
B12: DHFR_Con15ss_HP15: DHFR_Con15ss with 15 bp hairpin embedding the 5′ss; SEQ ID NO: 54 (nucleic acid)
DNA: GAGTAACGCTGTTTCTCTAACTTGTAGGAATGAATTCAGATATTTCCAGAGAATGACCACAACCTCTTCAGTAGAGGGTGAGTTGGCGAAAGCCAACTCACCCTCT
modifications: expressed or natural sequence

Test system: firefly luciferase gene expression in HEK 293 cells
Assay: Firefly luciferase assay of HEK 293 cells transfected with splicing / Intron-Exon-Intron constructs (no ligand)
Format: cell-based
Description: Transfection: 3.5×10^4 HEK 293 cells were plated in 96-well flat bottom plate the day before transfection. Plasmid DNA (500 ng) was added to a tube or a 96-well U-bottom plate. Separately, TransIT-293 reagent (Mirus; 1.4 uL) was added to 50 μL Opti-mem I media (Life Technologies), and allowed to sit for 5 minutes at room temperature (RT). Then, 50 μL of this diluted transfection reagent was added to the DNA, mixed, and incubated at room temperature (“RT”) for 20 min. Finally, 7 μL of this solution was added to a well of cells in the 96-well plate.
Firefly luciferase assay of cultured cells: 24 hours after media change, plates were removed from the incubator, and equilibrated to RT for several minutes on a lab bench, then aspirated. Glo-lysis buffer (Promega, 100 μL, RT) was added, and the plates allowed to remain at RT for at least 5 minutes. Then, the well contents were mixed by 50 μL trituration, and 20 μL of each sample was mixed with 20 μL of bright-glo reagent (Promega) that had been diluted to 10% in glo-lysis buffer. 96 wells were spaced on an opaque white 384-well plate. Following a 5 min incubation at RT, luminescence was measured using Tecan machine with 500 mSec read time. The luciferase activity was expressed as mean relative light unit (RLU)±S.D.
The constructs were verified by DNA sequencing (Genewiz). DNA was transfected in HEK 293 cells and assayed for luciferase activity as described in Example 1.
Sequences containing the DHFR exon 2 with native 3′ and 5′ ss sequences, in which the 5′ss was embedded in a hairpin structure were synthesized (IDT), and cloned into the indicated vector using Golden Gate cloning strategy (NEB). Constructs were transfected into HEK 293 cells and assayed for luciferase activity as described in Example 1.

Molecule	luciferase expression relative to control constructs (in words)	fold lower luciferase expression compared with Con 1	further results
B1	did not affect gene expression	–	–
B2	expression levels similar to Con 1 and Con 8	–	–
B3	expression levels similar to Con 1 and Con 8	–	–
B4	significantly reduce luciferase expression	–	–
B5	–	116 fold	–
B6	restored to the level of Con 1	–	–
B7	abolishes luciferase expression compared to Con 1; also recorded: efficiently suppresses luciferase expression	545 fold	–
B8	luciferase expression is increased	–	–
B9	does not express luciferase	2,982 fold	fold lower luciferase expression compared with Con 1 (listed as DHFR_mtSRp40): 2982 fold
B10	–	139 fold	–
B11	increased luciferase expression	–	fold increase in luciferase expression compared to the wild type DHFR exon 2: 4.3 fold
B12	allows luciferase expression	–	luciferase expression relative to control constructs (in words) (listed as DHFR_Con 15ss_HP15): completely restores luciferase expression to the level of Con 1
